Legend:
Assay in all cases: cell-based or functional assay
Elastase = biological target: Elastase
Cathepsin G = biological target: T1, Cathepsin G (UniProt P08311 21-244)
T1 sequence (looked up): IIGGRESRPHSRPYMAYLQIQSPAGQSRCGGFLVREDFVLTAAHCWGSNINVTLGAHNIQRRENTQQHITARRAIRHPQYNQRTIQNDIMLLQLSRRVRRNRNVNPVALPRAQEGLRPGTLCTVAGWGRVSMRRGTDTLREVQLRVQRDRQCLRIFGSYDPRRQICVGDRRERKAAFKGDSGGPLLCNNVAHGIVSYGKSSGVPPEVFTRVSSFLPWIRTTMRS

MMP1 = biological target: T2, MMP1 (human, UniProt P03956 100-469, limits assumed)
T2 sequence (looked up): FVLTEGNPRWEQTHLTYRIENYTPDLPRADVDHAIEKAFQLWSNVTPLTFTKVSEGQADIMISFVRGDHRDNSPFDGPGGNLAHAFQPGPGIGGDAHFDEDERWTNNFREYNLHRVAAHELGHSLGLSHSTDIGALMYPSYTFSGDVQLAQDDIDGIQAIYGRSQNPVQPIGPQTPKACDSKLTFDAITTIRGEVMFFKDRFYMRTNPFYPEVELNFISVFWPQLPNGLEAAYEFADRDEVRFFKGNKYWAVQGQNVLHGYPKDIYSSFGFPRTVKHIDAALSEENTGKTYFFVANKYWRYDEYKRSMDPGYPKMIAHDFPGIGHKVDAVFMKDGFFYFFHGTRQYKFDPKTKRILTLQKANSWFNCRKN

Row | Binder | Protease Inhibition (% of WT) (Elastase) | Protease Inhibition (% of WT) (Cathepsin G) | Protease Inhibition (% of WT) (MMP1)
1 | Variant A2M, bait region SEQ ID NO 142 (other) SVSGKPQYMVLVPSLLHTETTEKGCVLLSYLNETVTVSASLESVRGNRSLFTDLEAENDVLHCVAFAVPKSSSNEEVMFLTVQVKGPTQEFKKRTTVMVKNEDSLVFVQTDKSIYKPGQTVKFRVVSMDENFHPLNELIPLVYIQDPKGNRIAQWQSFQLEGGLKQFSFPLSSEPFQGSYKVVVQKKSGGRTEHPFTVEEFVLPKFEVQVTVPKIITILEEEMNVSVCGLYTYGKPVPGHVTVSICRKYSDASDCHGEDSQAFCEKFSGQLNSHGCFYQQVKTKVFQLKRKEYEMKLHTEAQIQEEGTVVELTGRQSSEITRTITKLSFVKVDSHFRQGIPFFGQVRLVDGKGVPIPNKVIFIRGNEANYYSNATTDEHGLVQFSINTTNVMGTSLTVRVNYKDRSPCYGYQWVSEEHEEAHHTAYLVFSPSKSFVHLEPMSHELPCGHTQTVQAHYILNGGTLLGLKKLSFYYLIMAKGGIVRTGTHGLLVKQEDMKGHFSISIPVKSDIAPVARLLIYAVLPTGDVIGDSAKYDVENCLANKVDLSFSPSQSLPASHAHLRVTAAPQSVCALRAVDQSVLLMKPDAELSASSVYNLLPEKDLTGFPGPLNDQDDEDCINRHNVYINGITYTPVSSTNEKDMYSFLEDMGLKAFTNSKIRKPKMCPQLEQYEMHGPSELEGRGSIPENFFGVEGEGEGEGKEEEGLGSVEEPHTKLRKYFPETWIWDLVVVNSAGVAEVGVTVPDTITEWKAGAFCLSEDAGLGISSTASLRAFQPFFVELTMPYSVIRGEAFTLKATVLNYLPKCIRVSVQLEASPAFLAVPVEKEQAPHCICANGRQTVSWAVTPKSLGNVNFTVSAEALESQELCGTEVPSVPEHGRKDTVIKPLLVEPEGLEKETTFNSLLCPSGGEVSEELSLKLPPNVVEESARASVSVLGDILGSAMQNTQNLLQMPYGCGEQNMVLFAPNIYVLDYLNETQQLTPEIKSKAIGYLNTGYQRQLNYKHYDGSYSTFGERYGRNQGNTWLTAFVLKTFAQARAYIFIDEAHITQALIWLSQRQKDNGCFRSSGSLLNNAIKGGVEDEVTLSAYITIALLEIPLTVTHPVVRNALFCLESAWKTAQEGDHGSHVYTKALLAYAFALAGNQDKRKEVLKSLNEEAVKKDNSVHWERPQKPKAPVGHFYEPQAPSAEVEMTSYVLLAYLTAQPAPTSEDLTSATNIVKWITKQQNAQGGFSSTQDTVVALHALSKYGAATFTRTGKAAQVTIQSSGTFSSKFQVDNNNRLLLQQVSLPELPGEYSMKVTGEGCVYLQTSLKYNILPEKEEFPFALGVQTLPQTCDEPKAHTSFQISLSVSYTGSRSASNMAIVDVKMVSGFIPLKPTVKMLERSNHVSRTEVSSNHVLIYLDKVSNQTLSLFFTVLQDVPVRDLKPAIVKVYDYYETDEFAIAEYNAPCSKDLGNADYKDDDDKGASHHHHHH | 200 % of WT | 300 % of WT | 350 % of WT
2 | Variant A2M, bait region SEQ ID NO 138 (other) SVSGKPQYMVLVPSLLHTETTEKGCVLLSYLNETVTVSASLESVRGNRSLFTDLEAENDVLHCVAFAVPKSSSNEEVMFLTVQVKGPTQEFKKRTTVMVKNEDSLVFVQTDKSIYKPGQTVKFRVVSMDENFHPLNELIPLVYIQDPKGNRIAQWQSFQLEGGLKQFSFPLSSEPFQGSYKVVVQKKSGGRTEHPFTVEEFVLPKFEVQVTVPKIITILEEEMNVSVCGLYTYGKPVPGHVTVSICRKYSDASDCHGEDSQAFCEKFSGQLNSHGCFYQQVKTKVFQLKRKEYEMKLHTEAQIQEEGTVVELTGRQSSEITRTITKLSFVKVDSHFRQGIPFFGQVRLVDGKGVPIPNKVIFIRGNEANYYSNATTDEHGLVQFSINTTNVMGTSLTVRVNYKDRSPCYGYQWVSEEHEEAHHTAYLVFSPSKSFVHLEPMSHELPCGHTQTVQAHYILNGGTLLGLKKLSFYYLIMAKGGIVRTGTHGLLVKQEDMKGHFSISIPVKSDIAPVARLLIYAVLPTGDVIGDSAKYDVENCLANKVDLSFSPSQSLPASHAHLRVTAAPQSVCALRAVDQSVLLMKPDAELSASSVYNLLPEKDLTGFPGPLNDQDDEDCINRHNVYINGITYTPVSSTNEKDMYSFLEDMGLKAFTNSKIRKPKMCPQLEQYEMHGPSEDLVVQIEGEGEGEGIPENFFGVKEEEGLGSVEEPHTKLRKYFPETWIWDLVVVNSAGVAEVGVTVPDTITEWKAGAFCLSEDAGLGISSTASLRAFQPFFVELTMPYSVIRGEAFTLKATVLNYLPKCIRVSVQLEASPAFLAVPVEKEQAPHCICANGRQTVSWAVTPKSLGNVNFTVSAEALESQELCGTEVPSVPEHGRKDTVIKPLLVEPEGLEKETTFNSLLCPSGGEVSEELSLKLPPNVVEESARASVSVLGDILGSAMQNTQNLLQMPYGCGEQNMVLFAPNIYVLDYLNETQQLTPEIKSKAIGYLNTGYQRQLNYKHYDGSYSTFGERYGRNQGNTWLTAFVLKTFAQARAYIFIDEAHITQALIWLSQRQKDNGCFRSSGSLLNNAIKGGVEDEVTLSAYITIALLEIPLTVTHPVVRNALFCLESAWKTAQEGDHGSHVYTKALLAYAFALAGNQDKRKEVLKSLNEEAVKKDNSVHWERPQKPKAPVGHFYEPQAPSAEVEMTSYVLLAYLTAQPAPTSEDLTSATNIVKWITKQQNAQGGFSSTQDTVVALHALSKYGAATFTRTGKAAQVTIQSSGTFSSKFQVDNNNRLLLQQVSLPELPGEYSMKVTGEGCVYLQTSLKYNILPEKEEFPFALGVQTLPQTCDEPKAHTSFQISLSVSYTGSRSASNMAIVDVKMVSGFIPLKPTVKMLERSNHVSRTEVSSNHVLIYLDKVSNQTLSLFFTVLQDVPVRDLKPAIVKVYDYYETDEFAIAEYNAPCSKDLGNADYKDDDDKGASHHHHHH | 250 % of WT | 100 % of WT | 200 % of WT
3 | Variant A2M, bait region SEQ ID NO 139 (other) SVSGKPQYMVLVPSLLHTETTEKGCVLLSYLNETVTVSASLESVRGNRSLFTDLEAENDVLHCVAFAVPKSSSNEEVMFLTVQVKGPTQEFKKRTTVMVKNEDSLVFVQTDKSIYKPGQTVKFRVVSMDENFHPLNELIPLVYIQDPKGNRIAQWQSFQLEGGLKQFSFPLSSEPFQGSYKVVVQKKSGGRTEHPFTVEEFVLPKFEVQVTVPKIITILEEEMNVSVCGLYTYGKPVPGHVTVSICRKYSDASDCHGEDSQAFCEKFSGQLNSHGCFYQQVKTKVFQLKRKEYEMKLHTEAQIQEEGTVVELTGRQSSEITRTITKLSFVKVDSHFRQGIPFFGQVRLVDGKGVPIPNKVIFIRGNEANYYSNATTDEHGLVQFSINTTNVMGTSLTVRVNYKDRSPCYGYQWVSEEHEEAHHTAYLVFSPSKSFVHLEPMSHELPCGHTQTVQAHYILNGGTLLGLKKLSFYYLIMAKGGIVRTGTHGLLVKQEDMKGHFSISIPVKSDIAPVARLLIYAVLPTGDVIGDSAKYDVENCLANKVDLSFSPSQSLPASHAHLRVTAAPQSVCALRAVDQSVLLMKPDAELSASSVYNLLPEKDLTGFPGPLNDQDDEDCINRHNVYINGITYTPVSSTNEKDMYSFLEDMGLKAFTNSKIRKPKMCPQLEQYEMHGPSEDLVVQIEGEGEGEGIPENFFGVEAIPMSIPTEPHTKLRKYFPETWIWDLVVVNSAGVAEVGVTVPDTITEWKAGAFCLSEDAGLGISSTASLRAFQPFFVELTMPYSVIRGEAFTLKATVLNYLPKCIRVSVQLEASPAFLAVPVEKEQAPHCICANGRQTVSWAVTPKSLGNVNFTVSAEALESQELCGTEVPSVPEHGRKDTVIKPLLVEPEGLEKETTFNSLLCPSGGEVSEELSLKLPPNVVEESARASVSVLGDILGSAMQNTQNLLQMPYGCGEQNMVLFAPNIYVLDYLNETQQLTPEIKSKAIGYLNTGYQRQLNYKHYDGSYSTFGERYGRNQGNTWLTAFVLKTFAQARAYIFIDEAHITQALIWLSQRQKDNGCFRSSGSLLNNAIKGGVEDEVTLSAYITIALLEIPLTVTHPVVRNALFCLESAWKTAQEGDHGSHVYTKALLAYAFALAGNQDKRKEVLKSLNEEAVKKDNSVHWERPQKPKAPVGHFYEPQAPSAEVEMTSYVLLAYLTAQPAPTSEDLTSATNIVKWITKQQNAQGGFSSTQDTVVALHALSKYGAATFTRTGKAAQVTIQSSGTFSSKFQVDNNNRLLLQQVSLPELPGEYSMKVTGEGCVYLQTSLKYNILPEKEEFPFALGVQTLPQTCDEPKAHTSFQISLSVSYTGSRSASNMAIVDVKMVSGFIPLKPTVKMLERSNHVSRTEVSSNHVLIYLDKVSNQTLSLFFTVLQDVPVRDLKPAIVKVYDYYETDEFAIAEYNAPCSKDLGNADYKDDDDKGASHHHHHH | 200 % of WT | 200 % of WT | 400 % of WT

Reference: patent US20230250154A1 (CYTONICS, published 2023)
